Target: the molecule itself
Assay: native MS

B1: recombinant DK fragment (DUF3669 and KRAB domains; residues 1-191) of ZNF746 (domain or fragment)
chain: not shown
  stoichiometry N: 3

Reference: doi:10.1101/2025.03.01.640934 (bioRxiv, 2025)
